Experimental data: patent US20120183532A1

Target: IL-1β receptor of the hepatic sinusoidal endothelium (HSE) cells (mouse) (UniProt P13504)
Experiment: cell-based or functional assay

UniProt P13504, sequence (P13504 20-576): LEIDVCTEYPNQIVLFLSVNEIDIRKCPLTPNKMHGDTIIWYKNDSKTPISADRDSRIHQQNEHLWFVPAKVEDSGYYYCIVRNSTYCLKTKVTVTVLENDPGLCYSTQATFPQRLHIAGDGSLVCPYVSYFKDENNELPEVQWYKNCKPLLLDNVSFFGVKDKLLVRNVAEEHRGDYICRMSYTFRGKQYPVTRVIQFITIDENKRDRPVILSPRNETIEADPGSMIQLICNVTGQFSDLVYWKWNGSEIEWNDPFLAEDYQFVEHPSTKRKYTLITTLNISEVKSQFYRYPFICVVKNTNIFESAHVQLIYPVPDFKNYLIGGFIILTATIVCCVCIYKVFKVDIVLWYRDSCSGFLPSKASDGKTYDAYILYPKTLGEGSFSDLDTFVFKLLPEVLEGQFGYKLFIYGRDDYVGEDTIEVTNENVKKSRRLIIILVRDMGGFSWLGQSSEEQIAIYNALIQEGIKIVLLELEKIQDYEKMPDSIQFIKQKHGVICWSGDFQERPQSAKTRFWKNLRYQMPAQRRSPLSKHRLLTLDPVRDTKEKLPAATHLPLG

recombinant C. albicans Kre9 (CaKre9) protein expressed in E. coli, fused to an HSV tag and 6 histidine residues (from UniProt O74226 22-271)
increase of the tumor adhesion (B16M cells) to the HSE with respect to the control: > 150%
